Measurements taken from patent US20250155401, “RAPID, SINGLE-STEP AND REAGENTLESS ELECTROCHEMICAL BIOSENSING METHODS, COMPOSITIONS AND DEVICES FOR NANOMOLAR DETECTION OF C-REACTIVE PROTEIN” (Advanced Biomedical Instrumentation Centre Limited, published 2025).

Assays:
[1] = biological target: T1, C-reactive protein (CRP) (UniProt P02741 P02741:19-224); experiment: square wave voltammetry on gold SPE, Hill-Langmuir fit of 48-hour sensor re-use data; BSA-doped PBS with Mg, room temperature not stated; details: tags: abcam ab167710, HEK 293 expressed, >95% purity; chain copies: 5 (pentamer, stated); label: 3' methylene blue
T1 sequence: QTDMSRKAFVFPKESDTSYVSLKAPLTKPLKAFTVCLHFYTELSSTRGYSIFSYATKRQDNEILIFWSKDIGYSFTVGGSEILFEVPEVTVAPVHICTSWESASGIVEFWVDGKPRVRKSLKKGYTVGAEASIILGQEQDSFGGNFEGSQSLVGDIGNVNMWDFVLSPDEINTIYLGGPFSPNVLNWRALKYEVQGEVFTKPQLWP
Method: Refer to FIGS. 4A-4D for the following descriptions. To assess reusability of the prepared aptasensors, dose-response assays are conducted in BSA doped PBS buffer 48 hours after initial testing. Magnesium is used to supplement PBS buffer to more closely match the ion content found in serum with observations showing little difference between results obtained from the initial screening assay. […] Despite these uncertainties, linear range observed for used sensors is broadly maintained. For used sensors, the LOD calculated from linear regression is shown to be approximately 363 pM which matched well with an LOD value of approx. 374 pM derived from non-linear regression fits to the Hill-Langmuir (dose response) function described in section 2.6. Non-Linear fitting is achieved with good fitting (adjusted R₂=0.99). […] Here, concentration is provided in molar units, calculated using the CRP pentameric isoform weight of 120 kDa.

[2] = biological target: human serum albumin (HSA) (Homo sapiens, UniProt P02768 P02768:25-609); experiment: square wave voltammetry; no observable deviation in response, PBS; details: label: 3' methylene blue
Method: (§1) The initial response spike is caused by injection of the analyte. Subsequent stabilisation of the response signal via this testing method occurs over 2-3 minutes. Crucially, significant concentrations of bovine serum albumin, and human serum albumin produce no observable deviation in response, confirming excellent selectivity against serum endogenous proteins that are well known to produce false positives in other sensors formats.

[3] = biological target: bovine serum albumin (BSA) (Bos taurus, UniProt P02769 P02769:25-607); experiment: as above; details: tags: Sigma-Aldrich, lyophilized powder >96%; label: 3' methylene blue
Method: as §1

[4] = biological target: T1, C-reactive protein (CRP); experiment: square wave voltammetry; no response up to 500 nM CRP in PBS with 1 mM BSA; details: tags: abcam ab167710, HEK 293 expressed, >95% purity; chain copies: 5 (pentamer, stated); label: 3' methylene blue
Method: Refer to FIGS. 3A-3E for the following descriptions. To assess specificity of the CRP-targeting aptamer, initial assays are conducted in PBS (1×) buffer supplemented with bovine serum albumin ‘BSA’. Albumin is fixed at a concentration of 1 mM to reflect slightly higher concentrations than those found in serum. Control sensors are prepared in the same fashion as with test sensors using an excised version of the CRP-targeting aptamer sequence without flanking primer regions (FIG. 3D). […] A Limit of detection ‘LOD’ of 105.4 pM is calculated using linear regression, using n=3 independently prepared sensors. […] Here, CRP concentration is reported in molar units and calculate values based on the pentameric isoform weight of 115-120 kDa, as is reported by the commercial supplier and elsewhere.

Sequence of bovine serum albumin (BSA) (P02769 25-607, one chain of several): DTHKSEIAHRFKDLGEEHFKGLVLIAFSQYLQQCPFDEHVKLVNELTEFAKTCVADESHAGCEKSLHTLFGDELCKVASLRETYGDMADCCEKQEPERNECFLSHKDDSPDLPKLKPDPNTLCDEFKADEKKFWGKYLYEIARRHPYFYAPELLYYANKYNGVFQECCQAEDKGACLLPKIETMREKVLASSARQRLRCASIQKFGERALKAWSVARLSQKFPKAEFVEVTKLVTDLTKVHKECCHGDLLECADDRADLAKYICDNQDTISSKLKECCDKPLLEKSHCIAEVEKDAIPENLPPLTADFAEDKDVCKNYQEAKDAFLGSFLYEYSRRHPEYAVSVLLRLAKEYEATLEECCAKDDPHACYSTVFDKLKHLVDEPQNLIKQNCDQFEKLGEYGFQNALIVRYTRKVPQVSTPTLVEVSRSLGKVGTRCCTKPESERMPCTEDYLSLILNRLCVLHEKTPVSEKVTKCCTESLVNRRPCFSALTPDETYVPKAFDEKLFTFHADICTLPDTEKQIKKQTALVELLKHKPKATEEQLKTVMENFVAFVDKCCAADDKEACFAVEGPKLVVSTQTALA
Sequence of human serum albumin (HSA) (P02768 25-609, one chain of several): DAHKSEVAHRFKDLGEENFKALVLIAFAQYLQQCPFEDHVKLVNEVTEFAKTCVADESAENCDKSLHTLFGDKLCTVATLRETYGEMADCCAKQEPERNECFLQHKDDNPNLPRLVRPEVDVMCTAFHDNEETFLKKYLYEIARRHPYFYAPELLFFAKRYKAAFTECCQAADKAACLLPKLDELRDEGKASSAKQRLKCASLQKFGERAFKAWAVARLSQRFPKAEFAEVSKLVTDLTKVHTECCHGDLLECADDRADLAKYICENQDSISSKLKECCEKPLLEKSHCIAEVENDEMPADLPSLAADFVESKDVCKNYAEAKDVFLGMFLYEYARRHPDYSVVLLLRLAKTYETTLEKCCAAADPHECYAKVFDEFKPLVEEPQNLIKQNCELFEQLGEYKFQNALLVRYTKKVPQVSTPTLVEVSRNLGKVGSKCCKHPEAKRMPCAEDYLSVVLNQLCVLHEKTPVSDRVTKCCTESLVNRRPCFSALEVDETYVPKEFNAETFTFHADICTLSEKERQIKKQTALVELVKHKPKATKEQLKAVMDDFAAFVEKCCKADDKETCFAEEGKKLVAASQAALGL

B1: CRP-targeting aptamer (ssDNA)
DNA: GGCAGGAAGACAAACACGATGGGGGGGTATGATTTGATGTGGTTGTTGCATGATCGTGGTCTGTGGTGCTGT
modifications: 5' thiol modifier (C6-S-S), 3' methylene blue via C7 spacer
Kd [1]: 55.4 nM
binding result [2]: no binding
binding result [3]: no binding

CGATGGGGGGGTATGATTTGATGTGGTTGTTGCATGATCG (ssDNA, 5' thiol modifier (C6-S-S), 3' methylene blue via C7 spacer) [CRP-targeting aptamer without flanking primer regions (control)]
binding result [4]: no binding
